Data on two molecules can be found in patent publication US20200071416A1 (ASTUTE MEDICAL, published 2020).

Experiment [1] deals with T1, TIMP-2 region 132PWDTLSTTQKK142 (human).
T1 construct: This exact peptide was not itself the assayed species
T1 peptide: PWDTLSTTQKK
Description: Pepscan ELISA on linear 15-mer TIMP-2 peptides. As to the method: (§1) Synthetic linear peptides were synthesized and screened as described by Slootstra et al. (Slootstra et al., 1996, Mol. Diversity 1, 87-96) and Timmerman et al. (Timmerman et al., 2007, J, Mol Recognit 20, 283-299). The binding of antibody to each peptide was tested in a PEPSCAN-based enzyme-linked immuno assay (ELISA). The covalently linked peptides were incubated with sample (for example 1 μg/mL antibody diluted in a PBS solution containing 5% horse serum (vol/vol) and 4% ovalbumin (weight/vol)) and 1% Tween 80 at 4° C. overnight. After washing, the peptides were incubated with Goat-anti-Rabbit HRP (Jackson Immunoresearch) for 1 hour at 25° C., and subsequently, after washing the peroxidase substrate 2,2′-azino-di-3-ethylbenzthiazoline sulfonate (ABTS) and […] 3% H₂O₂ were added. After 1 hour the color development was measured.

In experiment [2] the target is T2, TIMP-2 region 145NHRYQMGCECKI156 (human).
T2 construct: This exact peptide was not itself the assayed species
T2 peptide: NHRYQMGCECKI
Description: Pepscan ELISA on linear 15-mer TIMP-2 peptides. The protocol: as §1

B1: antibody 6E2.1 (antibody, V domains shown)
VH: QVQLQQSGPQLVRPGASVKISCKASGYSFTSYWMHWVKQRPGQGLEWIGVIDPSDSETRLNQKFKDKATLTVDKSSSTAYMQLNSPTSEDSAVYYCARRDYGSRYDAMDYWGQGTSVTVSS
VL: DIQMTQSSSYLSVSLGGRVTITCKASDHINNWLAWYQQKPGNAPRLLISGATSLETGVPSRFSGSGSGKDYTLSITSLQTEDVATYYCQQYWSTPFTFGSGTKLEIK
notes: Both are partial: a leader, the variable domain and only the start of the constant region
Take B1: the binding result in experiment [1] is given as “binds”.

B2: antibody 40H2-40K3 (antibody, V domains shown)
VH: QSLEESGGDLVKPEGSLTLTCTASGFTISSNYYMCWVRQAPGKGLEWVACILGGSGTYTYYATWAKGRFTISKTSSTTVTLQMPSLTAADTATYFCARQAPADTYLYGGYGPFNLWGQGTLVTVSS
VL: DIVMTQTPSSVEAAVGGTVTIKCQASESISGWLAWYQQKPGQPPKLLIYRASTLESGVPSRFKGSGSGTEFTLTISDLECADAATYYCQCSYGINGNSEHGNPFGGGTEVVVKR
For the molecule B2, the binding result in experiment [2] is given as “binds”.
